We go through 1 substance from doi:10.1101/2021.10.14.464379.

“And” between values parts separate entries of the source, which are not always exact repeats. Equal entries are not always repeated.

The target in assay [1] is ZmBAM7-S (short form of corn BAM7), full-length recombinant protein (Zea mays). Nature of the assay: SAXS.
The target is the same in assay [2]. Nature of the assay: SEC. (In general: In gel filtration, larger molecules generally elute earlier.)

On to “ZmBAM7-S (short form of corn BAM7), full-length recombinant protein (enzyme)”, for which the stoichiometry N (in general, the number of molecules, sites or subunits per partner or assembly) in assay [1] is 4; in assay [2] it was 4 subunits and 6 subunits.
